How the values were obtained:
c-Src SH2 = test: SH2 binding enrichment of the phosphorylated peptide, bacterial display (enrichment ratio); higher = better substrate or ligand; peptides without Tyr show the background
Grb2 SH2 = Grb2 SH2 (UniProt P62993); test: as above
SHP2-C SH2 = test: as above
Hck = Hck (UniProt P08631); test: phosphorylation enrichment, bacterial display (enrichment ratio); higher = better substrate or ligand; peptides without Tyr show the background
Fes = Fes (UniProt P07332); test: as above
c-Abl (mouse) = test: as above
Fyn = Fyn (UniProt P06241); test: as above
EPHB1 = EPHB1 (UniProt P54762); test: as above
Jak2 = Jak2 (UniProt O60674); test: as above
MERTK = MERTK (UniProt Q12866); test: as above
EPHB2 = EPHB2 (UniProt P29323); test: as above
Fer (mouse) = test: as above
FGFR3 = FGFR3 (UniProt P22607); test: as above
AncSZ = test: as above
c-Src = test: as above
FGFR1 = FGFR1 (UniProt P11362); test: as above
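Throughout, for SH2 binding enrichment of the phosphorylated peptide, bacterial display: peptide library displayed on the E. coli surface as eCPX fusions, selected cells deep-sequenced, score is each peptide's frequency after selection divided by its frequency in the input.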
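Throughout, for phosphorylation enrichment, bacterial display: 11-residue human phosphosite peptides and single-mutation variants displayed on the E. coli surface, counted by deep sequencing, each peptide's frequency after selection divided by its frequency in the unselected input library; frequency after pTyr selection over input frequency; kinase dosed for 20-30% of maximal phosphorylation in three min.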

Sequence of MERTK (Q12866 whole entry, looked up): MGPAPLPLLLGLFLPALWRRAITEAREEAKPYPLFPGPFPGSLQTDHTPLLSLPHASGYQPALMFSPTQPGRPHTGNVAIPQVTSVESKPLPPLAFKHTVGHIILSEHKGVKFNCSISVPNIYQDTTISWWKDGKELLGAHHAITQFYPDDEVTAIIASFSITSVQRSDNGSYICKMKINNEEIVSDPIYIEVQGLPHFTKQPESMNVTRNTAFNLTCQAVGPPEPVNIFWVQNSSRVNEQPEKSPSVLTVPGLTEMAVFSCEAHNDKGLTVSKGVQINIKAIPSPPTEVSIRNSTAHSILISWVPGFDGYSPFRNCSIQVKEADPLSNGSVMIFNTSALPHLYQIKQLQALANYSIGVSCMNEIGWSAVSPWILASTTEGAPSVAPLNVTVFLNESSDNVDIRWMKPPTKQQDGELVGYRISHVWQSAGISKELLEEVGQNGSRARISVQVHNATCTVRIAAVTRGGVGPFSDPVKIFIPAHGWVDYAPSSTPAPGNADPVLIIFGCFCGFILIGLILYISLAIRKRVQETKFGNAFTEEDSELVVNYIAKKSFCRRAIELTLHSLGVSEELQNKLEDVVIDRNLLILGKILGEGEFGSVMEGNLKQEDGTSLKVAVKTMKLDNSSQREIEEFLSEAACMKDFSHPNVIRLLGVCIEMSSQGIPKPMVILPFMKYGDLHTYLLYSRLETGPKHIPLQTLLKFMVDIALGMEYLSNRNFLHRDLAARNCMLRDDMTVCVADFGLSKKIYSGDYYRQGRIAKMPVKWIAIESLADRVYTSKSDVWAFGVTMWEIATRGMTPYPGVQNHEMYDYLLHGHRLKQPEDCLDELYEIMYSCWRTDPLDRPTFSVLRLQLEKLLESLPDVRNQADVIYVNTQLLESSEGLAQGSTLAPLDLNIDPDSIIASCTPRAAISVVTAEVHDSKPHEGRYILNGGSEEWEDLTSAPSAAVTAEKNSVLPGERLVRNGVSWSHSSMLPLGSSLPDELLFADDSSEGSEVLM
Sequence of Jak2 (O60674 whole entry, looked up): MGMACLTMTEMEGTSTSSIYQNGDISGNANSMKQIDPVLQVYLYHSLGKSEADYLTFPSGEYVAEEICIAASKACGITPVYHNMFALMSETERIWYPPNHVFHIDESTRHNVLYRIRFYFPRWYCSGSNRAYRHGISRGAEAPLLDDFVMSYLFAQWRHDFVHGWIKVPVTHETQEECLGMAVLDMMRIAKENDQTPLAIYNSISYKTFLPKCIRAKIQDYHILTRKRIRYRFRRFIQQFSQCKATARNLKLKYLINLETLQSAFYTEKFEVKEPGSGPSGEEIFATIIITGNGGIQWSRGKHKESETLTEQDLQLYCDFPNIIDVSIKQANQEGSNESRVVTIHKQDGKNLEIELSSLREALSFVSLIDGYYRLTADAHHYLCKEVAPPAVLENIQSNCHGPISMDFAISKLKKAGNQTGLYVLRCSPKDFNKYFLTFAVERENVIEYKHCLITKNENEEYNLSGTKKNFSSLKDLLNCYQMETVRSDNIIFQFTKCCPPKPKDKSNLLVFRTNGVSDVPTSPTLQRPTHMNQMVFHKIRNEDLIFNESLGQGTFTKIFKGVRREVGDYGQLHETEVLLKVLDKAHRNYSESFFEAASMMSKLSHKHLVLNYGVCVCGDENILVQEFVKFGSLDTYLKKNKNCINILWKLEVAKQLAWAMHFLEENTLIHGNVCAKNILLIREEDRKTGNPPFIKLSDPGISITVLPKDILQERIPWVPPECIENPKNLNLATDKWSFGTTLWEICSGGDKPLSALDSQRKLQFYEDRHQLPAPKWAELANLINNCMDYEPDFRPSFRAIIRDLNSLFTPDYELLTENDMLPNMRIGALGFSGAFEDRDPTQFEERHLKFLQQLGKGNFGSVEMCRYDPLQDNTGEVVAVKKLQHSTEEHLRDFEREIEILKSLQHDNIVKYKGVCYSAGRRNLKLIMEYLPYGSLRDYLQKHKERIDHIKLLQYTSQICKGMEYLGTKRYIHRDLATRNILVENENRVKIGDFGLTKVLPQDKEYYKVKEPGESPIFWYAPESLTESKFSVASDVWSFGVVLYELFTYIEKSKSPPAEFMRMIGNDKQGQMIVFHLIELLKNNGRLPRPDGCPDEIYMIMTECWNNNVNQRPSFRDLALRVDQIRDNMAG
Sequence of Fyn (P06241 whole entry, looked up): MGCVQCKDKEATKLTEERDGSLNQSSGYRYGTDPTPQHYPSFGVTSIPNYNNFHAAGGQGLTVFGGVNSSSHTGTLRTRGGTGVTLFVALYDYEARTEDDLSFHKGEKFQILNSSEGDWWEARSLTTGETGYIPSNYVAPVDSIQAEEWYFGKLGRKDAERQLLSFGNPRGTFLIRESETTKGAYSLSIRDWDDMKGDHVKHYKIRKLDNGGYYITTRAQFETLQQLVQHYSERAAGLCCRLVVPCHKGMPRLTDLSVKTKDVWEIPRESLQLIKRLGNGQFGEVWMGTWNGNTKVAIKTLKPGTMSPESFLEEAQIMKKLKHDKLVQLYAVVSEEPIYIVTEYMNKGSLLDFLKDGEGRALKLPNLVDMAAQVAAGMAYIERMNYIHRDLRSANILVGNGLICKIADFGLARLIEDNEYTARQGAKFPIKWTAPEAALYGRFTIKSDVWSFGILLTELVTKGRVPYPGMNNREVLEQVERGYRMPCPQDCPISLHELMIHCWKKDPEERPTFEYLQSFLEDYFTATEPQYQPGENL
Sequence of Grb2 SH2 (P62993 whole entry, looked up): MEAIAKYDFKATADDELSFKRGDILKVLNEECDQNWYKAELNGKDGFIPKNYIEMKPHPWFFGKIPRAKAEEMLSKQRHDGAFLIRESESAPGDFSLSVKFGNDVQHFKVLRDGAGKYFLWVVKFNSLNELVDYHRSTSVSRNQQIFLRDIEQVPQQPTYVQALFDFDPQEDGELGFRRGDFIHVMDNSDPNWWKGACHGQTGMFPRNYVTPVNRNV
Sequence of FGFR3 (P22607 whole entry, looked up): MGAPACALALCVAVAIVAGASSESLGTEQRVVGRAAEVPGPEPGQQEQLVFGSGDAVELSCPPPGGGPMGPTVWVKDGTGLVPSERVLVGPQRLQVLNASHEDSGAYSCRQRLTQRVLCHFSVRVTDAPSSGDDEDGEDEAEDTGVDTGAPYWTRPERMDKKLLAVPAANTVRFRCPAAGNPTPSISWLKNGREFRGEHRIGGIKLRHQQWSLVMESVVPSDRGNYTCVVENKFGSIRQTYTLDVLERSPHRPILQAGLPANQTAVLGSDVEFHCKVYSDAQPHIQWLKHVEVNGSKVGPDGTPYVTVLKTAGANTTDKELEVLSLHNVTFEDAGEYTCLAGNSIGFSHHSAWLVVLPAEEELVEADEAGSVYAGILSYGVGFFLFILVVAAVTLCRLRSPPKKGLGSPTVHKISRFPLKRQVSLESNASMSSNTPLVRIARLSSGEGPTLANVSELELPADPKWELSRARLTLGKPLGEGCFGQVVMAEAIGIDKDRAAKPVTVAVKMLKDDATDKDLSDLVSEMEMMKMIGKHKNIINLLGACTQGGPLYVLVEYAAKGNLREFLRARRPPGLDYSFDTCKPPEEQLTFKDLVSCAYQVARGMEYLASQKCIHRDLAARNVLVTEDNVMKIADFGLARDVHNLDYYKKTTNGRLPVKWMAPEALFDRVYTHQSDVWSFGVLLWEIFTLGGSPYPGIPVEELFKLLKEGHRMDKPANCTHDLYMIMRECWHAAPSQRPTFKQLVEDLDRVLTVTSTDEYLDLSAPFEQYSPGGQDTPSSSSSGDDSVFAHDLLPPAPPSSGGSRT
Sequence of EPHB1 (P54762 whole entry, looked up): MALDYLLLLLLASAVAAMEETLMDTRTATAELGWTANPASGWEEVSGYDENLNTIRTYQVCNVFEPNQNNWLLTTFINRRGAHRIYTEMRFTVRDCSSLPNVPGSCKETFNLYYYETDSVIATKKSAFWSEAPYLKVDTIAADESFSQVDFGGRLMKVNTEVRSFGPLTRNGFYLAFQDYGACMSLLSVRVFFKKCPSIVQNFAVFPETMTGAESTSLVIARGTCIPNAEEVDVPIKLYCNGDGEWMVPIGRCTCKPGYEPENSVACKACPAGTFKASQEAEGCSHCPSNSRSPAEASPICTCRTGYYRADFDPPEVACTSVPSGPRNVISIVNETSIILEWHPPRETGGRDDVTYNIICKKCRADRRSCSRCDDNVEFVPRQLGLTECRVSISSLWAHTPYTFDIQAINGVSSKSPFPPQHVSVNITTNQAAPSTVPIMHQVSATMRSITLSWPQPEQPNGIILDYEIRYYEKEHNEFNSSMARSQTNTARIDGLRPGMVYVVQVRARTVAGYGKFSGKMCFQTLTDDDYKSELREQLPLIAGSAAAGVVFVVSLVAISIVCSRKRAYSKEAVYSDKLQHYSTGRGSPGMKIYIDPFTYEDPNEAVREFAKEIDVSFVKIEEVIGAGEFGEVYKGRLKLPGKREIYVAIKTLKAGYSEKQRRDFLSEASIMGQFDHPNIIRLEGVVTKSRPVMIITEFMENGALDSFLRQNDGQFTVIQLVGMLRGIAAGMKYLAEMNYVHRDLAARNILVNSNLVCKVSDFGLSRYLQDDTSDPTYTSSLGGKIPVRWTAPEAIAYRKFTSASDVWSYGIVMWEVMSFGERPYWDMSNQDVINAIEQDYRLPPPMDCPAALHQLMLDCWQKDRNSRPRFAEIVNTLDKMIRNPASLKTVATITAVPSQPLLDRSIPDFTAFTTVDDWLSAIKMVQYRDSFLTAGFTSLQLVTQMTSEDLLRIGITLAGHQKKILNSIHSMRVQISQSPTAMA

| Sequence | SH2 binding enrichment (c-Src SH2) | SH2 binding enrichment (Grb2 SH2) | SH2 binding enrichment (SHP2-C SH2) | phosphorylation enrichment (Hck) | phosphorylation enrichment (Fes) | phosphorylation enrichment (c-Abl (mouse)) | phosphorylation enrichment (Fyn) | phosphorylation enrichment (EPHB1) | phosphorylation enrichment (Jak2) | phosphorylation enrichment (MERTK) | phosphorylation enrichment (EPHB2) | phosphorylation enrichment (Fer (mouse)) | phosphorylation enrichment (FGFR3) | phosphorylation enrichment (AncSZ) | phosphorylation enrichment (c-Src) | phosphorylation enrichment (FGFR1) |
| --- | --- | --- | --- | --- | --- | --- | --- | --- | --- | --- | --- | --- | --- | --- | --- | --- |
| QQLQGYIPSNF [FRK_Y99_YF] | 0.47 | 0.674 | 0.519 | 0.647 | 1.29 | 0.899 | 0.938 | 0.763 | 0.981 | 0.878 | 0.881 | 0.679 | 1.09 | 1.11 | 0.546 | 0.884 |
| EEGNPSYSSAR [MCCC2_Y520_Y520S] | 0.517 | 0.825 | 0.647 | 0.585 | 1 | 1.25 | 0.497 | 0.514 | 0.776 | 0.501 | 0.539 | 0.513 | 0.554 | 0.962 | 0.542 | 0.529 |
| FEPWVYSFSFE [PRKDC_Y647_YF] | 0.551 | 0.736 | 0.738 | 3.01 | 1.65 | 0.842 | 6.63 | 0.775 | 1.25 | 1.66 | 0.744 | 1.34 | 1.03 | 1.59 | 6.33 | 0.653 |
| KVWGIYDCQQP [CYP3A7_Y75] | 0.472 | 0.78 | 0.761 | 6.28 | 1.61 | 0.998 | 7.28 | 6.6 | 1.14 | 4.76 | 2.3 | 2.48 | 0.772 | 1.56 | 4.49 | 0.687 |
| NHQFDYTFDWT [CSNK1A1_Y294_YF] | 0.606 | 1.02 | 0.829 | 0.543 | 1.12 | 0.995 | 0.584 | 0.696 | 1.08 | 0.565 | 0.721 | 0.459 | 2.22 | 1.23 | 1.22 | 3.58 |
| PIPIKYKAMKK [MYD88_Y257_L252P] | 0.822 | 1.32 | 1.1 | 0.582 | 0.72 | 0.642 | 0.5 | 0.407 | 0.665 | 0.382 | 0.495 | 0.336 | 0.858 | 0.677 | 0.534 | 0.383 |
| LRSELYFLIAR [PHIP_Y16] | 1.05 | 1.44 | 1.03 | 1.93 | 1.71 | 1.63 | 0.769 | 1.54 | 3.62 | 7.59 | 1.4 | 0.916 | 3.17 | 2.02 | 1.5 | 3.06 |
| QAFSWYQHQRA [NDST1_Y714_R709Q_YF] | 0.709 | 0.778 | 0.86 | 0.547 | 1.64 | 0.731 | 0.658 | 1.03 | 1.43 | 0.569 | 0.71 | 0.863 | 1.02 | 1.61 | 0.371 | 0.687 |
| RRIHSYRRHLW [VHL_Y112_G114R] | 0.536 | 0.918 | 0.678 | 0.746 | 0.699 | 0.699 | 0.65 | 0.725 | 0.633 | 0.707 | 0.82 | 0.529 | 0.718 | 0.735 | 0.584 | 0.868 |
| SLNEGYAKDFD [FBP1_Y216_R218K] | 0.598 | 0.788 | 0.84 | 0.525 | 0.937 | 0.589 | 0.534 | 0.508 | 0.71 | 0.437 | 0.6 | 0.511 | 0.716 | 1.02 | 0.371 | 0.566 |
| KWHREYNSKFV [RICTOR_Y835_YF] | 1.19 | 1.11 | 1.18 | 0.371 | 0.623 | 0.555 | 0.364 | 0.35 | 0.581 | 0.37 | 0.391 | 0.422 | 0.49 | 0.556 | 0.334 | 0.371 |
| MKGEYYRYLAE [YWHAG_Y131_D129E] | 0.676 | 0.922 | 1.12 | 0.732 | 1.07 | 0.82 | 0.606 | 0.685 | 1.42 | 0.471 | 0.779 | 0.429 | 2.92 | 1.12 | 0.795 | 4.14 |
| PRDSGYSFETI [MAP1B_Y1921_S1917R_YF] | 1.5 | 1.1 | 0.742 | 0.823 | 1.89 | 1.63 | 0.581 | 0.657 | 2.36 | 0.755 | 1.22 | 1.33 | 1.14 | 1.25 | 1.31 | 0.912 |
| PSPMPCASCQM [FOXL2_Y215_Y215C] | 0.523 | 0.797 | 0.606 | 0.41 | 0.516 | 0.799 | 0.603 | 0.354 | 0.766 | 0.588 | 0.287 | 0.488 | 0.559 | 0.541 | 0.37 | 0.445 |
| LTTEAYEWEPC [ELMOD3_Y61_R66C] | 1.37 | 1.02 | 0.959 | 1.88 | 6.22 | 4.16 | 1.58 | 3.5 | 6.69 | 1.57 | 2.44 | 2.88 | 3.7 | 5.1 | 5.66 | 2.04 |
| WNDLDYMDSRR [GAA_Y407] | 0.553 | 0.936 | 0.622 | 0.471 | 1.26 | 0.864 | 0.451 | 0.698 | 1.4 | 0.371 | 0.532 | 0.427 | 0.674 | 1.34 | 0.646 | 0.59 |
| VQQVIYATGAL [MYH7_Y422] | 0.413 | 0.798 | 0.727 | 7.57 | 1 | 25.3 | 6.98 | 0.96 | 1.38 | 3.08 | 0.986 | 0.71 | 0.798 | 0.932 | 5.97 | 0.488 |

| Sequence | SH2 binding enrichment (c-Src SH2) | SH2 binding enrichment (Grb2 SH2) | SH2 binding enrichment (SHP2-C SH2) | phosphorylation enrichment (Hck) | phosphorylation enrichment (Fes) | phosphorylation enrichment (c-Abl (mouse)) | phosphorylation enrichment (Fyn) | phosphorylation enrichment (EPHB1) | phosphorylation enrichment (Jak2) | phosphorylation enrichment (MERTK) | phosphorylation enrichment (EPHB2) | phosphorylation enrichment (Fer (mouse)) | phosphorylation enrichment (FGFR3) | phosphorylation enrichment (AncSZ) | phosphorylation enrichment (c-Src) | phosphorylation enrichment (FGFR1) |
| --- | --- | --- | --- | --- | --- | --- | --- | --- | --- | --- | --- | --- | --- | --- | --- | --- |
| GITVAYTIPKK [UBA5_Y372] | 0.835 | 0.71 | 1.26 | 0.317 | 0.739 | 0.702 | 0.475 | 0.441 | 0.669 | 0.528 | 0.331 | 0.384 | 0.534 | 0.763 | 0.396 | 0.337 |
| YLGRDYLETLM [DUS3L_Y610] | 0.563 | 0.748 | 0.803 | 0.829 | 1.03 | 0.898 | 0.514 | 0.617 | 1.06 | 0.524 | 0.544 | 0.637 | 2.29 | 0.937 | 0.538 | 2.74 |
| CTTIHYNFTCN [TP53_Y234_M237T_YF] | 1.67 | 1.96 | 1.83 | 0.414 | 0.866 | 0.634 | 0.443 | 0.448 | 0.704 | 0.42 | 0.6 | 0.426 | 0.593 | 0.797 | 0.441 | 0.496 |
| PEADKYRLPFA [FGG_Y300_T303P_YF] | 0.423 | 0.821 | 0.517 | 0.648 | 0.717 | 0.634 | 0.614 | 0.61 | 0.731 | 0.442 | 0.645 | 0.512 | 0.657 | 0.988 | 0.614 | 0.544 |
| VPFAQYLAMNK [HARS1_Y138_R137Q] | 0.533 | 0.959 | 0.798 | 0.54 | 0.639 | 0.504 | 0.458 | 0.488 | 0.838 | 0.403 | 0.431 | 0.406 | 0.536 | 0.685 | 0.44 | 0.494 |
| MDFRSYPHEFG [RBM10_Y44_R46H_YF] | 0.624 | 0.88 | 0.766 | 0.335 | 0.69 | 0.465 | 0.397 | 0.434 | 0.536 | 0.366 | 0.402 | 0.354 | 0.526 | 0.64 | 0.317 | 0.464 |
| YGLPRYRWLTH [TSPAN12_Y143] | 0.404 | 0.797 | 0.723 | 0.543 | 0.765 | 0.512 | 0.492 | 0.5 | 0.659 | 0.492 | 0.628 | 0.411 | 0.475 | 0.841 | 0.387 | 0.572 |
| ILGRFYETSSI [PAX2_Y73_G76S_YF] | 1.02 | 0.85 | 0.792 | 0.531 | 0.813 | 0.606 | 0.399 | 0.516 | 0.665 | 0.472 | 0.47 | 0.887 | 0.463 | 0.66 | 0.47 | 0.417 |
| VTQEQYELHCE [CBL_Y368_Y371H] | 0.571 | 0.656 | 0.48 | 0.479 | 1.35 | 0.791 | 0.576 | 0.708 | 1.1 | 0.37 | 0.601 | 0.736 | 0.874 | 1.2 | 0.52 | 0.542 |
| TAALWYIYLHT [ENG_Y612_S615L] | 0.514 | 0.989 | 0.52 | 0.579 | 1.66 | 1.18 | 0.587 | 0.796 | 1.55 | 0.516 | 0.639 | 0.769 | 1.1 | 1.41 | 0.566 | 0.81 |
| SFTDPYAQPPL [KMT2D_Y2378_YF] | 0.534 | 0.651 | 0.656 | 0.502 | 0.832 | 0.502 | 0.531 | 0.475 | 0.722 | 0.468 | 0.527 | 0.411 | 0.607 | 0.787 | 0.54 | 0.487 |
| SLGKGYYDGGC [MC4R_Y35_S36Y] | 0.727 | 0.741 | 0.59 | 0.552 | 1.33 | 0.841 | 0.611 | 0.65 | 1.03 | 0.514 | 0.591 | 0.648 | 0.68 | 0.96 | 0.543 | 0.635 |
| YNNYGYGSDGF [HNRNPH3_Y161_N163S] | 0.969 | 1.49 | 0.658 | 0.521 | 0.784 | 0.55 | 0.507 | 2.96 | 0.631 | 0.652 | 5.3 | 0.458 | 0.683 | 0.735 | 0.505 | 0.673 |
| YIATQYSLRPR [LBR_Y166] | 0.392 | 0.762 | 0.685 | 0.568 | 0.773 | 0.72 | 0.558 | 0.511 | 0.779 | 0.731 | 0.493 | 0.439 | 0.527 | 0.932 | 0.659 | 0.551 |
| RETLTYAQAQG [BRD1_Y33_R38G] |  |  |  | 0.982 | 0.448 | 0.418 | 0.551 |  |  | 0.391 | 0.934 | 0.383 | 0.149 | 0.579 | 0.768 | 0.916 |
| MSLRSYGSWEG [APC_Y96_R99W] | 0.282 | 0.45 | 0.412 | 0.459 | 0.881 | 0.273 | 0.633 | 0.581 | 0.793 | 0.047 | 0.338 |  | 0.671 | 1.32 | 0.705 | 0.034 |

— the supplement of paper PMC10065799, “High-throughput profiling of sequence recognition by tyrosine kinases and SH2 domains using bacterial peptide display” (eLife, 2023)
